B1: EHMT1 (parent)
chain: SARQGELQKVLLMLVDGIDPNFKM
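Also: lentivirally expressed fusions sorted by FACS into six bins by GFP to DsRed ratio, PSI derived from sequencing read proportions per bin multiplied by bin number.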

Variants of: B1
Assay: protein stability index of a GFP-peptide fusion (GPS, HEK-293T) (PSI 1-6); higher = more stable
Details: c terminus: a fixed tail appended
In the case of SARQGELQKVLLMLVDGIDPNRKM, the protein stability index is reported as 1.52. Work on SARQGELQKVLLMLVDGIDPNHKM yielded a protein stability index of 1.56. SARQGELQKVLLMLVDGIDPNNKM gave a protein stability index of 1.56. For SARQGELQKVLLMLVDGIDPNMKM, the protein stability index was 1.13. SARQGELQKVLLMLVDGIDPNPKM showed a protein stability index of 1.76. In the case of SARQGELQKVLLMLVDGIDPNSKM, the protein stability index is reported as 2.71. Variant SARQGELQKVLLMLVDGIDPNLKM has a protein stability index of 1.83. In the case of SARQGELQKVLLMLVDGIDPNYKM, the protein stability index is reported as 1.39. With SARQGELQKVLLMLVDGIDPNAKM the protein stability index was 1.65. In the case of SARQGELQKVLLMLVDGIDPNIKM, the protein stability index is reported as 2.09. For SARQGELQKVLLMLVDGIDPNCKM, the protein stability index was 1.82. In the case of SARQGELQKVLLMLVDGIDPNQKM, the protein stability index is reported as 1.76. SARQGELQKVLLMLVDGIDPNKKM gave a protein stability index of 1.89. Variant SARQGELQKVLLMLVDGIDPNGKM has a protein stability index of 2.71. SARQGELQKVLLMLVDGIDPNDKM showed a protein stability index of 2.01. Work on SARQGELQKVLLMLVDGIDPNVKM yielded a protein stability index of 1.18. Work on SARQGELQKVLLMLVDGIDPNEKM yielded a protein stability index of 2.69. SARQGELQKVLLMLVDGIDPNTKM gave a protein stability index of 2.21. SARQGELQKVLLMLVDGIDPNWKM gave a protein stability index of 2.49. For SARQGELQKVLLMLCDGIDPNFKM, the protein stability index was 1.64. Work on SARQGELQKVLLMLKDGIDPNFKM yielded a protein stability index of 2.25. In the case of SARQGELQKVLLMLGDGIDPNFKM, the protein stability index is reported as 2. Variant SARQGELQKVLLMLQDGIDPNFKM has a protein stability index of 2.17. Work on SARQGELQKVLLMLADGIDPNFKM yielded a protein stability index of 2.07. SARQGELQKVLLMLWDGIDPNFKM showed a protein stability index of 2.75. For SARQGELQKVLLMLRDGIDPNFKM, the protein stability index was 1.65. Work on SARQGELQKVLLMLPDGIDPNFKM yielded a protein stability index of 2.39. SARQGELQKVLLMLSDGIDPNFKM showed a protein stability index of 1.83. In the case of SARQGELQKVLLMLDDGIDPNFKM, the protein stability index is reported as 2.69. SARQGELQKVLLMLMDGIDPNFKM showed a protein stability index of 1.59. For SARQGELQKVLLMLYDGIDPNFKM, the protein stability index was 1.68. Work on SARQGELQKVLLMLTDGIDPNFKM yielded a protein stability index of 1.26. In the case of SARQGELQKVLLMLHDGIDPNFKM, the protein stability index is reported as 1.66. For SARQGELQKVLLMLNDGIDPNFKM, the protein stability index was 2.56. For SARQGELQKVLLMLLDGIDPNFKM, the protein stability index was 1.49. For SARQGELQKVLLMLFDGIDPNFKM, the protein stability index was 3.86. SARQGELQKVLLMLIDGIDPNFKM gave a protein stability index of 1.72. With SARQGELQKVLLMLEDGIDPNFKM the protein stability index was 2.54. Work on SARQGELQKVLLMLVDGIDPNFTM yielded a protein stability index of 2.02. With SARQGELQKVLLMLVDGIDPNFDM the protein stability index was 2.17. SARQGELQKVLLMLVDGIDPNFGM showed a protein stability index of 1.19. SARQGELQKVLLMLVDGIDPNFHM gave a protein stability index of 2.78. SARQGELQKVLLMLVDGIDPNFAM gave a protein stability index of 2.4. For SARQGELQKVLLMLVDGIDPNFPM, the protein stability index was 2.18. SARQGELQKVLLMLVDGIDPNFRM showed a protein stability index of 2.82. With SARQGELQKVLLMLVDGIDPNFYM the protein stability index was 1.94. With SARQGELQKVLLMLVDGIDPNFLM the protein stability index was 1.88. SARQGELQKVLLMLVDGIDPNFVM gave a protein stability index of 2.81. SARQGELQKVLLMLVDGIDPNFNM gave a protein stability index of 1.3. SARQGELQKVLLMLVDGIDPNFIM showed a protein stability index of 1.59. SARQGELQKVLLMLVDGIDPNFQM showed a protein stability index of 2.39. Work on SARQGELQKVLLMLVDGIDPNFEM yielded a protein stability index of 1.21. Variant SARQGELQKVLLMLVDGIDPNFKI has a protein stability index of 1.77. Work on SARQGELQKVLLMLVDGIDPNFKL yielded a protein stability index of 1.93. With SARQGELQKVLLMLVDGIDPNFKK the protein stability index was 2.42. With SARQGELQKVLLMLVDGIDPNFKN the protein stability index was 1.48. Variant SARQGELQKVLLMLVDGIDPNFKQ has a protein stability index of 1.84. Variant SARQGELQKVLLMLVDGIDPNFKA has a protein stability index of 2.04. With SARQGELQKVLLMLVDGIDPNFKR the protein stability index was 1.8. SARQGELQKVLLMLVDGIDPNFKG showed a protein stability index of 1.23. SARQGELQKVLLMLVDGIDPNFKH showed a protein stability index of 1.19. Variant SARQGELQKVLLMLVDGIDPNFKT has a protein stability index of 1.42. In the case of SARQGELQKVLLMLVDGIDPNFKD, the protein stability index is reported as 3.33. Variant SARQGELQKVLLMLVDGIDPNFKE has a protein stability index of 2.18. With SARQGELQKVLLMLVDGIDPNFKY the protein stability index was 1.9. Work on SARQGELQKVLLMLVDGIDPNFKP yielded a protein stability index of 2.6. With SARQGELQKVLLMLVDGIDPNFKC the protein stability index was 2.05. In the case of SARQGELQKVLLMLVDGIDPGFKM, the protein stability index is reported as 3.57. For SARQGELQKVLLMLVDGIDPKFKM, the protein stability index was 1.96. SARQGELQKVLLMLVDGIDPMFKM gave a protein stability index of 2.24. Work on SARQGELQKVLLMLVDGIDPDFKM yielded a protein stability index of 1.41. With SARQGELQKVLLMLVDGIDPLFKM the protein stability index was 3.55. Work on SARQGELQKVLLMLVDGIDPIFKM yielded a protein stability index of 1.93. SARQGELQKVLLMLVDGIDPHFKM showed a protein stability index of 1.97. Variant SARQGELQKVLLMLVDGIDPYFKM has a protein stability index of 2.93. SARQGELQKVLLMLVDGIDPQFKM showed a protein stability index of 1.41. Variant SARQGELQKVLLMLVDGIDPWFKM has a protein stability index of 3.96. Work on SARQGELQKVLLMLVDGIDPTFKM yielded a protein stability index of 1.98. With SARQGELQKVLLMLVDGIDPRFKM the protein stability index was 1.26. For SARQGELQKVLLMLVDGIDTNFKM, the protein stability index was 1.27. With SARQGELQKVLLMLVDGIDKNFKM the protein stability index was 1.76. SARQGELQKVLLMLVDGIDGNFKM gave a protein stability index of 1.09. In the case of SARQGELQKVLLMLVDGIDRNFKM, the protein stability index is reported as 1.5. Variant SARQGELQKVLLMLVDGIDHNFKM has a protein stability index of 1.75. With SARQGELQKVLLMLVDGIDMNFKM the protein stability index was 2.91. For SARQGELQKVLLMLVDGIDANFKM, the protein stability index was 2.66. Work on SARQGELQKVLLMLVDGIDDNFKM yielded a protein stability index of 1.43. Variant SARQGELQKVLLMLVDGIDFNFKM has a protein stability index of 2.59. Variant SARQGELQKVLLMLVDGIDQNFKM has a protein stability index of 1.83. SARQGELQKVLLMLVDGIWPNFKM showed a protein stability index of 2.35. SARQGELQKVLLMLVDGITPNFKM gave a protein stability index of 3.29. With SARQGELQKVLLMLVDGISPNFKM the protein stability index was 2.5. SARQGELQKVLLMLVDGINPNFKM showed a protein stability index of 1.64. With SARQGELQKVLLMLVDGIYPNFKM the protein stability index was 2.73.

— the supplement of paper PMC10567573
